Data on 94 variants can be found in the supplement of paper PMC10567573.

B1: PPEF2 (parent)
chain: DHSGFISLDEFRQTWKLFSSHMNI
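Further: lentivirally expressed fusions sorted by FACS into six bins by GFP to DsRed ratio, PSI derived from sequencing read proportions per bin multiplied by bin number.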

This data set covers variants of B1. Briefly: protein stability index of a GFP-peptide fusion (GPS, HEK-293T) (PSI 1-6); higher = more stable. As to conditions: c terminus: a fixed tail appended.
As to DHIGFISLDEFRQTWKLFSSHMNI [S3I], the protein stability index came out at 1.84. As for DHLGFISLDEFRQTWKLFSSHMNI [S3L], the figure is 2.07; as for DHKGFISLDEFRQTWKLFSSHMNI [S3K], 2.47; as for DHGGFISLDEFRQTWKLFSSHMNI [S3G], 1.97.

For DHQGFISLDEFRQTWKLFSSHMNI [S3Q], the protein stability index turned out to be 1.85. As to DHHGFISLDEFRQTWKLFSSHMNI [S3H], the protein stability index came to 1.69.

Regarding DHNGFISLDEFRQTWKLFSSHMNI [S3N], the protein stability index is 1.99. As for DHAGFISLDEFRQTWKLFSSHMNI [S3A], the figure is 1.92; as for DHCGFISLDEFRQTWKLFSSHMNI [S3C], 1.81; as for DHVGFISLDEFRQTWKLFSSHMNI [S3V], 1.46. The same measure for DHWGFISLDEFRQTWKLFSSHMNI [S3W]: 1.8; for DHEGFISLDEFRQTWKLFSSHMNI [S3E]: 2.17; for DHTGFISLDEFRQTWKLFSSHMNI [S3T]: 2.62. Turning to DHFGFISLDEFRQTWKLFSSHMNI [S3F], the protein stability index is 2.23. The same measure for DHMGFISLDEFRQTWKLFSSHMNI [S3M]: 1.69. The same measure for DHPGFISLDEFRQTWKLFSSHMNI [S3P]: 1.91; for DHDGFISLDEFRQTWKLFSSHMNI [S3D]: 2; for DHYGFISLDEFRQTWKLFSSHMNI [S3Y]: 2.27. As for DHRGFISLDEFRQTWKLFSSHMNI [S3R], the figure is 2.58; as for DHSGFILLDEFRQTWKLFSSHMNI [S7L], 1.83. As for DHSGFITLDEFRQTWKLFSSHMNI [S7T], the protein stability index turned out to be 2.04.

Turning to DHSGFICLDEFRQTWKLFSSHMNI [S7C], the protein stability index is 2.37. Turning to DHSGFIDLDEFRQTWKLFSSHMNI [S7D], the protein stability index was 1.47. As for DHSGFIFLDEFRQTWKLFSSHMNI [S7F], the figure is 2.52; as for DHSGFIMLDEFRQTWKLFSSHMNI [S7M], 2.3. As for DHSGFIPLDEFRQTWKLFSSHMNI [S7P], the figure is 1.44. Turning to DHSGFIGLDEFRQTWKLFSSHMNI [S7G], the protein stability index was 2.95. As to DHSGFIWLDEFRQTWKLFSSHMNI [S7W], the protein stability index was 2.08.

Take DHSGFIQLDEFRQTWKLFSSHMNI [S7Q]: the protein stability index is 1.79. As for DHSGFIILDEFRQTWKLFSSHMNI [S7I], the figure is 2.44. As for DHSGFINLDEFRQTWKLFSSHMNI [S7N], the figure is 2.06; as for DHSGFIRLDEFRQTWKLFSSHMNI [S7R], 2.1. The same measure for DHSGFIHLDEFRQTWKLFSSHMNI [S7H]: 1.83; for DHSGFIALDEFRQTWKLFSSHMNI [S7A]: 2.06; for DHSGFIELDEFRQTWKLFSSHMNI [S7E]: 1.86. For DHSGFIKLDEFRQTWKLFSSHMNI [S7K], the protein stability index was 1.69. On to DHSGFIYLDEFRQTWKLFSSHMNI [S7Y], for which the protein stability index came out at 1.97.

As to DPSGFISLDEFRQTWKLFSSHMNI [H2P], the protein stability index is 2.32. The same measure for DCSGFISLDEFRQTWKLFSSHMNI [H2C]: 1.75; for DMSGFISLDEFRQTWKLFSSHMNI [H2M]: 3.51.

With DESGFISLDEFRQTWKLFSSHMNI [H2E], the protein stability index amounted to 1.44. With DGSGFISLDEFRQTWKLFSSHMNI [H2G], the protein stability index was 1.43. As for DRSGFISLDEFRQTWKLFSSHMNI [H2R], the figure is 1.34; as for DYSGFISLDEFRQTWKLFSSHMNI [H2Y], 2.11; as for DKSGFISLDEFRQTWKLFSSHMNI [H2K], 2.01.

As to DNSGFISLDEFRQTWKLFSSHMNI [H2N], the protein stability index is 1.14. The same measure for DFSGFISLDEFRQTWKLFSSHMNI [H2F]: 1.9; for DLSGFISLDEFRQTWKLFSSHMNI [H2L]: 1.25; for DDSGFISLDEFRQTWKLFSSHMNI [H2D]: 1.86. For DSSGFISLDEFRQTWKLFSSHMNI [H2S], the protein stability index was 1.92. As for DWSGFISLDEFRQTWKLFSSHMNI [H2W], the figure is 1.82; as for DTSGFISLDEFRQTWKLFSSHMNI [H2T], 1.72. As for DASGFISLDEFRQTWKLFSSHMNI [H2A], the figure is 2.35.

Take DISGFISLDEFRQTWKLFSSHMNI [H2I]: the protein stability index is 1.91. The same measure for DVSGFISLDEFRQTWKLFSSHMNI [H2V]: 1.45; for DQSGFISLDEFRQTWKLFSSHMNI [H2Q]: 1.75; for DHSRFISLDEFRQTWKLFSSHMNI [G4R]: 1.87.

In the case of DHSCFISLDEFRQTWKLFSSHMNI [G4C], the protein stability index amounted to 2.41. The same measure for DHSFFISLDEFRQTWKLFSSHMNI [G4F]: 2.5; for DHSWFISLDEFRQTWKLFSSHMNI [G4W]: 1.98. As for DHSQFISLDEFRQTWKLFSSHMNI [G4Q], the figure is 2.47; as for DHSVFISLDEFRQTWKLFSSHMNI [G4V], 3.22. Turning to DHSYFISLDEFRQTWKLFSSHMNI [G4Y], the protein stability index came to 2.27.

For DHSEFISLDEFRQTWKLFSSHMNI [G4E], the protein stability index came to 2.16. In the case of DHSHFISLDEFRQTWKLFSSHMNI [G4H], the protein stability index was 2.28. As for DHSPFISLDEFRQTWKLFSSHMNI [G4P], the figure is 1.98; as for DHSLFISLDEFRQTWKLFSSHMNI [G4L], 2.95. The same measure for DHSDFISLDEFRQTWKLFSSHMNI [G4D]: 1.78. The same measure for DHSIFISLDEFRQTWKLFSSHMNI [G4I]: 2.78; for DHSAFISLDEFRQTWKLFSSHMNI [G4A]: 2.89; for DHSMFISLDEFRQTWKLFSSHMNI [G4M]: 1.65. In the case of DHSSFISLDEFRQTWKLFSSHMNI [G4S], the protein stability index was found to be 1.51.

Take DHSNFISLDEFRQTWKLFSSHMNI [G4N]: the protein stability index amounted to 2.69.

As for DHSKFISLDEFRQTWKLFSSHMNI [G4K], the protein stability index was 1.31.

As to DHSTFISLDEFRQTWKLFSSHMNI [G4T], the protein stability index worked out at 1.95. As for GHSGFISLDEFRQTWKLFSSHMNI [D1G], the figure is 1.47. As for MHSGFISLDEFRQTWKLFSSHMNI [D1M], the figure is 1.94; as for AHSGFISLDEFRQTWKLFSSHMNI [D1A], 1.51; as for HHSGFISLDEFRQTWKLFSSHMNI [D1H], 1.38. As for YHSGFISLDEFRQTWKLFSSHMNI [D1Y], the figure is 2.58; as for CHSGFISLDEFRQTWKLFSSHMNI [D1C], 2.13; as for PHSGFISLDEFRQTWKLFSSHMNI [D1P], 2.12. In the case of FHSGFISLDEFRQTWKLFSSHMNI [D1F], the protein stability index worked out at 2.27. With VHSGFISLDEFRQTWKLFSSHMNI [D1V], the protein stability index came out at 2.56.

Regarding EHSGFISLDEFRQTWKLFSSHMNI [D1E], the protein stability index amounted to 1.4.

For the variant WHSGFISLDEFRQTWKLFSSHMNI [D1W], the protein stability index stood at 2.08. The same measure for THSGFISLDEFRQTWKLFSSHMNI [D1T]: 2.84. The same measure for NHSGFISLDEFRQTWKLFSSHMNI [D1N]: 3.49; for SHSGFISLDEFRQTWKLFSSHMNI [D1S]: 4.12; for IHSGFISLDEFRQTWKLFSSHMNI [D1I]: 3.63. The same measure for KHSGFISLDEFRQTWKLFSSHMNI [D1K]: 2.64. With RHSGFISLDEFRQTWKLFSSHMNI [D1R], the protein stability index is 1.95.

QHSGFISLDEFRQTWKLFSSHMNI [D1Q]: the protein stability index came out at 2.4. The same measure for LHSGFISLDEFRQTWKLFSSHMNI [D1L]: 3.93.
